Publication PMC5095587

Molecular target: ferredoxin isoform 2 from Arabidopsis thaliana (Arabidopsis thaliana) (UniProt P16972)
Assay: NMR titration; 15N HSQC of labelled ferredoxin with purified FusA added at varying stoichiometry up to 1:1; buffer with 0.1% LDAO, sodium phosphate; 600 MHz

FusA_(1043) Δ20 (FusA from P. atrosepticum SCRI1043 lacking the 20 amino-acid N-terminal signal sequence) (from UniProt Q6CZW5 21-704) (receptor)
stoichiometry N: 1
